From article PMC13477270

Molecular target: miniTRIM37 RING–B-box-2–hcc (human | T. thermophilus) (UniProt O94972)
Test: SEC-MALS

stoichiometry N: 2
Substance: miniTRIM37 RING–B-box-2–hcc (from UniProt O94972 1-158; O94972 214-254)
